Reference: patent publication US20250034266A1 (ZAI LAB SHANGHAI, published 2025)
Numbering of substitutions follows the chain as printed. Names may count otherwise. Values belong to the binder of their own block, whether it stands above or below them.

Key:
[1] = molecular target: T1, human CCR8 (human, UniProt P51685 1-355); experiment: cell-based or functional assay
T1 sequence (P51685 whole entry): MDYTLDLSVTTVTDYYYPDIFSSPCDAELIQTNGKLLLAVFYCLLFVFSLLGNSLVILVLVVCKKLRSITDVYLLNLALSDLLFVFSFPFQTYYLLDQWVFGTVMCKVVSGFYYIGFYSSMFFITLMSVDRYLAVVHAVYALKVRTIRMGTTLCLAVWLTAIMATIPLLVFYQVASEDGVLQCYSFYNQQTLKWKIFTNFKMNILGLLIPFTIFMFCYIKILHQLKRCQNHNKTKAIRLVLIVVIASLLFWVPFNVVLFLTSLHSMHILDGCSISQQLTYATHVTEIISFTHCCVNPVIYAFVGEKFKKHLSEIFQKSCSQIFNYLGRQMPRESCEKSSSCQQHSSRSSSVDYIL

[2] = molecular target: T2, human CCR8 (human, UniProt P51685 1-355); experiment: flow cytometry on TALL-1 cells (endogenous CCR8)
T2 construct: whole, on cells; also called hCCR8; CHO-K1-human CCR8
Method: Briefly, a total of 5×10⁴ cells for each well were seeded in 96-well plates and washed with FACS buffer (DPBS containing 1.5% FBS) for once. Antibodies were prepared with 3-fold serial dilution ranging from 100 nM to 0.00508 nM in FACS buffer. Cells were incubated with 50 μL of diluted antibodies at 4° C. for 40 minutes. After primary antibody incubation, cells were washed twice by FACS buffer. Then, cells were stained by Alexa Flu647-labeled anti-human IgG Fc secondary antibody (Jackson ImmunoResearch, #109606170) at 1:500 dilution in FACS buffer for 40 minutes at 4° C. After 2 times wash with FACS buffer, flow cytometry (BD FACS Celesta) was performed to measure the binding affinities of antibodies.
T2 sequence (P51685 whole entry): as above

[3] = molecular target: T2, human CCR8; experiment: cell-based or functional assay; remark: listed apart in the source
[4] = molecular target: human CCR8 tagged with ProLink (PK) (human, UniProt P51685 1-355); experiment: cell-based or functional assay
[5] = molecular target: T2, human CCR8; experiment: cell-based or functional assay; remark: listed apart in the source
[6] = molecular target: T2, human CCR8; experiment: cell-based or functional assay; remark: listed apart in the source
[7] = molecular target: T1, human CCR8; experiment: cell-based or functional assay; remark: listed apart in the source

human CCR8 tagged with ProLink (PK), sequence (P51685 whole entry): as above

B2: TPP21360 (antibody, V domains shown)
VH: EVQLLESGGGLVQPGGSLRLSCAASGFTFSSYGMHWVRQAPGKGLEWVSAINWNGGSTGYADSVKGRFTISRDNSKNTLYLQMNSLRAEDTAVYYCARGHHSGYDGRFFDYWGQGTLVTVSS
VL: QSVLTQPPSVSGAPGQRVTISCTGSSSNIGAGYNVHWYQQLPGTAPKLLIYTNNRRPSGVPDRFSGSKSGTSASLAISGLRSEDEADYYCAAWDASLSGWVFGGGTKLTVLG
- EC50 [2]: 461 pM
- EC50, ADCC with human PBMCs (LDH release), target TALL-1 cells [3]: 553 pM

B3: Hu149-11G1m (antibody, human IgG1)
heavy: EVQLVESGGGLVQPGGSLKLSCAASGFTFNTYAMNWVRQASGKGLEWVGRIRSKSNFYATAYAASVKGRFTISRDDSKNTAYLQMNSLKTEDTAVYYCTRGREYGSSYAMDYWGQGTLVTVSSASTKGPSVFPLAPSSKSTSGGTAALGCLVKDYFPEPVTVSWNSGALTSGVHTFPAVLQSSGLYSLSSVVTVPSSSLGTQTYICNVNHKPSNTKVDKKVEPKSCDKTHTCPPCPAPELVGGPSVFLLPPKPKDTLMISRTPEVTCVVVDVSHEDPEVKFNWYVDGVEVHNAKTKPPEEQYNSTLRVVSVLTVLHQDWLNGKEYKCKVSNKALPAPIEKTISKAKGQPREPQVYTLPPSRDELTKNQVSLTCLVKGFYPSDIAVEWESNGQPENNYKTTPLVLDSDGSFFLYSKLTVDKSRWQQGNVFSCSVMHEALHNHYTQKSLSLSPGK
VL: DIVMTQSPLSLPVTPGEPASISCRSSKSLLHSNANTYLYWFLQKPGQSPQLLIYRMSNLASGVPDRFSGSGSGTDFTLKISRVEAEDVGVYYCMQHLEYPLTFGGGTKVELK
notes: also called Hu149-11G1m (ADCC enhanced variant with L235V/F243L/R292P/Y300L/P396L Fc mutations)
- IC50, inhibition of CCL1 induced β-Arrestin recruitment, CHO-K1-human CCR8 β-Arrestin cells [4]: 2090 pM
- EC50 [2]: 328 pM
- EC50, ADCC with human PBMCs, target CHO-K1-human CCR8 cells [5]: 0.085 pM
- Max specific lysis (%), ADCC with human PBMCs, target CHO-K1-human CCR8 cells [5]: 46.6%
- EC50, ADCC with human PBMCs (LDH release), target TALL-1 cells [3]: 0.682 pM
- EC50, ADCC reporter, F variant CD16a/NFAT-Jurkat, target CHO-K1-human CCR8 cells [6]: 5.6 pM
- EC50, ADCC reporter, F variant CD16a/NFAT-Jurkat, target HuT78 cells [6]: 16.4 pM
- EC50, ADCC reporter, V variant CD16a/NFAT-Jurkat, target CHO-K1-human CCR8 cells [6]: 7.25 pM
- EC50, ADCC reporter, V variant CD16a/NFAT-Jurkat, target HuT78 cells [6]: 20.3 pM
- Max (RLU), ADCC reporter, F variant CD16a/NFAT-Jurkat, target CHO-K1-human CCR8 cells [6]: 8.28e+06 RLU
- Max (RLU), ADCC reporter, F variant CD16a/NFAT-Jurkat, target HuT78 cells [6]: 1.59e+07 RLU
- Max (RLU), ADCC reporter, V variant CD16a/NFAT-Jurkat, target CHO-K1-human CCR8 cells [6]: 3.93e+06 RLU
- Max (RLU), ADCC reporter, V variant CD16a/NFAT-Jurkat, target HuT78 cells [6]: 8.7e+06 RLU

B4: Hu149-12G1m (antibody, human IgG1)
heavy: B3 heavy with R102K
VL: B3 VL
- IC50, inhibition of CCL1 induced β-Arrestin recruitment, CHO-K1-human CCR8 β-Arrestin cells [4]: 1160 pM
- EC50, ADCC with human PBMCs, target CHO-K1-human CCR8 cells [5]: 0.136 pM
- Max specific lysis (%), ADCC with human PBMCs, target CHO-K1-human CCR8 cells [5]: 44.2%
- EC50, ADCC reporter, F variant CD16a/NFAT-Jurkat, target CHO-K1-human CCR8 cells [6]: 4.05 pM
- EC50, ADCC reporter, F variant CD16a/NFAT-Jurkat, target HuT78 cells [6]: 8.69 pM
- EC50, ADCC reporter, V variant CD16a/NFAT-Jurkat, target CHO-K1-human CCR8 cells [6]: 5.6 pM
- EC50, ADCC reporter, V variant CD16a/NFAT-Jurkat, target HuT78 cells [6]: 11.4 pM
- Max (RLU), ADCC reporter, F variant CD16a/NFAT-Jurkat, target CHO-K1-human CCR8 cells [6]: 8.18e+06 RLU
- Max (RLU), ADCC reporter, F variant CD16a/NFAT-Jurkat, target HuT78 cells [6]: 1.48e+07 RLU
- Max (RLU), ADCC reporter, V variant CD16a/NFAT-Jurkat, target CHO-K1-human CCR8 cells [6]: 3.94e+06 RLU
- Max (RLU), ADCC reporter, V variant CD16a/NFAT-Jurkat, target HuT78 cells [6]: 8.64e+06 RLU

The next lines start with the values.

- IC50, inhibition of CCL1 induced β-Arrestin recruitment [1]: 860000 pM
B1: Hu348-4 mIgG2a (antibody, V domains shown)
VH: EVQLVESGGGLVQPGGSLKLSCATSGFSFSNYRMHWLRQASGKGLEWVGVITVKSDNYGANYAASVKGRFTISRDDSKSSVYLQMNSLKTEDTAVYYCSSLGRVAYWGQGTLVTVSS
VL: DIQMTQSPSSVSASVGDRVTITCKASQNVDTNVVWYQQKPGQSPKALIYSASSRYSGVPSRFSGSGSGTDFTLTISSLQPEDFATYYCQQHNSFPLTFGQGTKLEIK

- IC50, blocking of CCL1 induced cell migration [7]: 1920 pM
- IC50, inhibition of CCL1 induced β-Arrestin recruitment [1]: 8640 pM
B5: Hu149-9 mIgG2a (antibody, V domains shown)
VH: EVQLVESGGGLVQPGGSLKLSCAASGFTFNTYAMNWVRQASGKGLEWVGRIRSKSNFYATAYAASVKGRFTISRDDSKNTAYLQMNSLKTEDTAVYYCTRGRDYGSSYAMDYWGQGTLVTVSS
VL: B3 VL
